{"source": "paper PMC11676761", "about": "“Mining and Characterization of Amylosucrase from Calidithermus terrae for Synthesis of α-Arbutin Using Sucrose” (International Journal of Molecular Sciences, 2024)", "substrate": "OC[C@H]1O[C@@](CO)(O[C@H]2O[C@H](CO)[C@@H](O)[C@H](O)[C@H]2O)[C@@H](O)[C@@H]1O", "test": "DNS assay of released fructose, Lineweaver-Burk", "assay_type": "biochemical, Calidithermus terrae", "conditions": "42.0 °C"}
{"protein": "(Calidithermus terrae) (protein) MFSTPLPAELRPLLERLLVQAESDLSGSDLETFSLRLERYLPDLHAGLAAVYPDVEGLLERLLPVLTAAHRARPAGLKRLDAHRLLAPDWFQRPEMIAYVAYTERFAGTLKGIEERLDYLEELGVRYLHLMPFLKPRPAPHDGGYAVMDYRAVREDLGSMDDLEALTAKLRARGIALCCDLVLNHVAQEHEWAVRARAGEARYQHYFHMFPDRTLPDEYEKTLPEVFPDFAPGNFTFDEASGKWVWTTFNRWQWDLNWANPAVFLEFADLILWLANRGVEVFRLDAIAFIWKRLGTNCQNQPEVHAITQALRAVARVVAPAVLFKAEAIVAPDDLIHYLGQGEHFGLVSDTAYHNSLMVQIWSSLASRDVRLMSEALRRFPVKPTNTAWNTYLRCHDDIGWAIADDDAARVGLSGEAHRRFLSDYYSGRFPTSPSRGLVFQENPRTGDRRISGSGASLAGLEQALEQNDPRQVHLSLERLLLGHAVVLGFGGIPLLYMGDELALLNDYSYLEEPEHAEDNRWVHRPHMDWDKAARAKADPASTEGRMYHGLLHLIRVRRATPHFHAAIEAQILEPRNPHVFGYVRRHPLGNLVALYNFSEEVQYYPAEVLWQQGLSLPHDRIGGQLVPIERHLVRLEPYARLWITDEV", "values": [{"measurement": "Km", "value": 89.39, "unit": "mmol/L"}, {"measurement": "kcat", "value": 5183.97, "unit": "min⁻¹"}]}
